# Test results from patent publication US20230265179A1 (TWIST BIOSCIENCE, published 2023).
# Positions count from the first letter of the chain named.
# T1: IL1RL1 over-expressed on Expi293 cells (UniProt Q01638 19-556, limits assumed)
# T1 construct: whole, on cells; Target of the flow cytometry MFI ratio (over-expressing cells over parent cells); also called cytokine over-expressing Expi293 cells
# T1 sequence (looked up): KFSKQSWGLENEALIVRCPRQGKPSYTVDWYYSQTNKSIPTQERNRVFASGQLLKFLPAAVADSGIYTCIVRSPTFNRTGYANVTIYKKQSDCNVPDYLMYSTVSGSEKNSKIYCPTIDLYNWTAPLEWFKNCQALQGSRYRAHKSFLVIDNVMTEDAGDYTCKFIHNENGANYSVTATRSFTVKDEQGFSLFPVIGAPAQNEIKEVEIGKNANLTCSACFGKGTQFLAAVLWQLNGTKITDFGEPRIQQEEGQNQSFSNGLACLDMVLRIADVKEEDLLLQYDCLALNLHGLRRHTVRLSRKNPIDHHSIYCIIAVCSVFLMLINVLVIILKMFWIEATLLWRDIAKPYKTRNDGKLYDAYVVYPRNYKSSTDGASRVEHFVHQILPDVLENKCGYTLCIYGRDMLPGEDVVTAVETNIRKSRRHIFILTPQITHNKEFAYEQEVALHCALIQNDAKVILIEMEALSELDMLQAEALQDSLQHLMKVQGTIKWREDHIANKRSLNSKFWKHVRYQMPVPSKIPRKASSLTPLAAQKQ
# T2: IL1RL1 (UniProt Q01638 19-328, limits assumed)
# T2 construct: SPR analyte
# T2 sequence (looked up): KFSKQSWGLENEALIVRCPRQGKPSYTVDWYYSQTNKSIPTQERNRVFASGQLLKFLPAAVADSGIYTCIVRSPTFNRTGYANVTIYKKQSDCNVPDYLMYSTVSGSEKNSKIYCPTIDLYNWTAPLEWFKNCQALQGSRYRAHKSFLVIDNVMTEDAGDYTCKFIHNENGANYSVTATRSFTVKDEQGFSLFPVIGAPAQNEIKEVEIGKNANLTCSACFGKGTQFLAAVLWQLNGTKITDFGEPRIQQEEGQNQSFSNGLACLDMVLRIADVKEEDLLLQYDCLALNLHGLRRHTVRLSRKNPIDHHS
# B1: IL1RL1-4 (Fc fusion, not shown: a dimerising Fc or GST)
# VHH: EVQLVESGGGLVQPGGSLRLSCAASGNAFRSTVMGWFRQAPGKEREFVAVIIDSRTTKYADSVKGRFTISADNSKNTAYLQMNSLKPEDTAVYYCAAVGGATTVTASEWDWGQGTLVTVSS
# notes: VHH-Fc on IgG2 Fc
# B2: IL1RL1-53 (Fc fusion, not shown: a dimerising Fc or GST)
# VHH: B1 VHH with N27R, A28T, F29P, R30S, S31I, T32I, V33A, F47L
# notes: VHH-Fc on IgG2 Fc
# B3: IL1RL1-74 (Fc fusion, not shown: a dimerising Fc or GST)
# VHH: B1 VHH with N27F, A28T, R30S, T32A, V33I, F47L
# notes: VHH-Fc on IgG2 Fc
# B4: IL1RL1-6 (Fc fusion, not shown: a dimerising Fc or GST)
# VHH: EVQLVESGGGLVQPGGSLRLSCAASGRTISTYGMGWFRQAPGKEREWVSGINRDGSTYYADRVKGRFTISADNSKNTAYLQMNSLKPEDTAVYYCALRRLSPPPLLDWGQGTLVTVSS
# notes: VHH-Fc on IgG2 Fc
# B5: IL1RL1-7 (Fc fusion, not shown: a dimerising Fc or GST)
# VHH: EVQLVESGGGLVQPGGSLRLSCAASGRTSNIYAMGWFRQAPGKEREPVASITPGGRFPAYADSVKGRFTISADNSKNTAYLQMNSLKPEDTAVYYCSTLYYSGLDPVDYWGQGTLVTVSS
# notes: VHH-Fc on IgG2 Fc
# B6: IL1RL1-90 (Fc fusion, not shown: a dimerising Fc or GST)
# VHH: EVQLVESGGGLVQPGGSLRLSCAASGVTLDLYAMGWFRQAPGKEREAVASISSSGSSIYYADSVKGRFTISADNSKNTAYLQMNSLKPEDTAVYYCAANYGGSVLYNWGQGTLVTVSS
# notes: VHH-Fc on IgG2 Fc
# B7: IL1RL1-8 (Fc fusion, not shown: a dimerising Fc or GST)
# VHH: B6 VHH with V27R, L29S, D30N, L31I, A47F, I51L, S53A, S57L, I58T, Y59W
# notes: VHH-Fc on IgG2 Fc
# B8: IL1RL1-10 (Fc fusion, not shown: a dimerising Fc or GST)
# VHH: EVQLVESGGGLVQPGGSLRLSCAASGRTSNIYAMGWFRQAPGKEREWVASISTSGSTITPYADSVKGRFTISADNSKNTAYLQMNSLKPEDTAVYYCAAVYVSTWGNGYDWGQGTLVTVSS
# notes: VHH-Fc on IgG2 Fc
# B9: IL1RL1-11 (Fc fusion, not shown: a dimerising Fc or GST)
# VHH: EVQLVESGGGLVQPGGSLRLSCAASGRTFNWYAMGWFRQAPGKEREWVSSIGIAGTPTFYADSVKGRFTISADNSKNTAYLQMNSLKPEDTAVYYCAAVSSNSETFDWGQGTLVTVSS
# notes: VHH-Fc on IgG2 Fc
# B10: IL1RL1-12 (Fc fusion, not shown: a dimerising Fc or GST)
# VHH: EVQLVESGGGLVQPGGSLRLSCAASGSIFGLNAMGWFRQAPGKEREFVAAISRFGSTDYADSVKGRFTISADNSKNTAYLQMNSLKPEDTAVYYCARSYCTADSCYSSWFDPWGQGTLVTVSS
# notes: VHH-Fc on IgG2 Fc
# B11: IL1RL1-14 (Fc fusion, not shown: a dimerising Fc or GST)
# VHH: EVQLVESGGGLVQPGGSLRLSCAASGDISSIVAMGWFRQAPGKEREWVSSIDTGGGSNIVYADSVKGRFTISADNSKNTAYLQMNSLKPEDTAVYYCAAGLLDVQYVRQAAGYSWGQGTLVTVSS
# notes: VHH-Fc on IgG2 Fc
# B12: IL1RL1-15 (Fc fusion, not shown: a dimerising Fc or GST)
# VHH: EVQLVESGGGLVQPGGSLRLSCAASGRTYSISAMGWFRQAPGKEREWVSSIGIAGTPTFYADSVKGRFTISADNSKNTAYLQMNSLKPEDTAVYYCAAGVTGGAAYGWGQGTLVTVSS
# notes: VHH-Fc on IgG2 Fc
# B13: IL1RL1-16 (Fc fusion, not shown: a dimerising Fc or GST)
# VHH: EVQLVESGGGLVQPGGSLRLSCAASGFSLDYYGMGWFRQAPGKEREGVATINWSGATSYADSVKGRFTISADNSKNTAYLQMNSLKPEDTAVYYCAIPGVWGQGTLVTVSS
# notes: VHH-Fc on IgG2 Fc
# B14: IL1RL1-17 (Fc fusion, not shown: a dimerising Fc or GST)
# VHH: EVQLVESGGGLVQPGGSLRLSCAASGRDLDYYAMGWFRQAPGKEREWVSSIGIAGTPTFYADSVKGRFTISADNSKNTAYLQMNSLKPEDTAVYYCAVVDLLRGKLWGQGTLVTVSS
# notes: VHH-Fc on IgG2 Fc
# B15: IL1RL1-19 (Fc fusion, not shown: a dimerising Fc or GST)
# VHH: EVQLVESGGGLVQPGGSLRLSCAASGRTDSTASMGWFRQAPGKEREEVAAISWSGGRTYYADSVKGRFTISADNSKNTAYLQMNSLKPEDTAVYYCARLAFQGNTVFDLWGQGTLVTVSS
# notes: VHH-Fc on IgG2 Fc
# B16: IL1RL1-92 (Fc fusion, not shown: a dimerising Fc or GST)
# VHH: B15 VHH with D29H
# notes: VHH-Fc on IgG2 Fc
# B17: IL1RL1-20 (Fc fusion, not shown: a dimerising Fc or GST)
# VHH: EVQLVESGGGLVQPGGSLRLSCAASGFSLDDRVMGWFRQAPGKEREFVAGITLGGSTSYADSVKGRFTISADNSKNTAYLQMNSLKPEDTAVYYCAAAPVPWGTRPSLLTYDWGQGTLVTVSS
# notes: VHH-Fc on IgG2 Fc
# B18: IL1RL1-21 (Fc fusion, not shown: a dimerising Fc or GST)
# VHH: EVQLVESGGGLVQPGGSLRLSCAASGTITSAVFMGWFRQAPGKEREFVAGIIGSGGATYYADSVKGRFTISADNSKNTAYLQMNSLKPEDTAVYYCAASRYARERDVHAYDWGQGTLVTVSS
# notes: VHH-Fc on IgG2 Fc
# B19: IL1RL1-22 (Fc fusion, not shown: a dimerising Fc or GST)
# VHH: EVQLVESGGGLVQPGGSLRLSCAASGRTSNIYAMGWFRQAPGKEREWVASISTSGSTITPYADSVKGRFTISADNSKNTAYLQMNSLKPEDTAVYYCAIAHGSSTYNWGQGTLVTVSS
# B20: IL1RL1-23 (Fc fusion, not shown: a dimerising Fc or GST)
# VHH: EVQLVESGGGLVQPGGSLRLSCAASGRTFSTASMGWFRQAPGKEREWVASISTSGSTITPYADSVKGRFTISADNSKNTAYLQMNSLKPEDTAVYYCAVVDLLRGKLWGQGTLVTVSS
# notes: VHH-Fc on IgG2 Fc
# B21: IL1RL1-24 (Fc fusion, not shown: a dimerising Fc or GST)
# VHH: EVQLVESGGGLVQPGGSLRLSCAASGGTAYAMGWFRQAPGKEREWVASISTSGSTITPYADSVKGRFTISADNSKNTAYLQMNSLKPEDTAVYYCAAASRSGSGYDWGQGTLVTVSS
# notes: VHH-Fc on IgG2 Fc
# B22: IL1RL1-59 (Fc fusion, not shown: a dimerising Fc or GST)
# VHH: B21 VHH with A98N, S99V, R100G, S101V, G102T, S103G, G104S, D106E
# notes: VHH-Fc on IgG2 Fc
# B23: IL1RL1-25 (Fc fusion, not shown: a dimerising Fc or GST)
# VHH: EVQLVESGGGLVQPGGSLRLSCAASGGTFNGRAMGWFRQAPGKEREGVATINSGGGTNYADSVKGRFTISADNSKNTAYLQMNSLKPEDTAVYYCALRRLSPPPLLDWGQGTLVTVSS
# notes: VHH-Fc on IgG2 Fc
# B24: IL1RL1-26 (Fc fusion, not shown: a dimerising Fc or GST)
# VHH: EVQLVESGGGLVQPGGSLRLSCAASGLTTVYTMGWFRQAPGKERESVASISWTGGTTYYADSVKGRFTISADNSKNTAYLQMNSLKPEDTAVYYCAAIAHEEGVYRWDWGQGTLVTVSS
# notes: VHH-Fc on IgG2 Fc
# B25: IL1RL1-27 (Fc fusion, not shown: a dimerising Fc or GST)
# VHH: EVQLVESGGGLVQPGGSLRLSCAASGGTISTYAIGWFRQAPGKEREGVAAISPGNNTHYADSVKGRFTISADNSKNTAYLQMNSLKPEDTAVYYCAARPVRVDDISLPVGFDWGQGTLVTVSS
# notes: VHH-Fc on IgG2 Fc
# Molecular target: T1, IL1RL1 over-expressed on Expi293 cells
# Experiment: flow cytometry, 100 nM antibody, over-expressing Expi293 / parent cells
# Protocol: All incubations and washes were in buffer containing PBS+1% BSA. MFI Ratio is defined by the mean fluorescence intensity (MFI) of the cytokine over-expressing Expi293 cell over the Expi293 parent cell. […] EC50 was calculated in GraphPad Prism.
row,Binder,100 nM FACS (MFI Ratio) [MFI ratio]
1,B1,472
2,B2,441
3,B3,521
4,B4,128
5,B5,586
6,B6,105
7,B7,298
8,B8,398
9,B9,446
10,B10,437
11,B11,515
12,B12,331
13,B13,478
14,B14,415
15,B15,486
16,B16,484
17,B17,396
18,B18,521
19,B19,294
20,B20,526
21,B21,438
22,B22,374
23,B23,69.5
24,B24,310
25,B25,450

# Molecular target: T2, IL1RL1
# Experiment: SPR (Carterra LSA), antibody amine-coupled, 1:1 model;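 also: HC30M sensor chip at 25 °C in HBS-TE, analyte at rising concentrations in buffer containing 0.5 mg/mL BSA, 5 min association then 15 min dissociation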
# Protocol: SPR experiments were performed on a Carterra LSA SPR biosensor equipped with a HC30M chip at 25° C. in HBS-TE. Antibodies were diluted to 10 μg/mL and amine-coupled to the sensor chip by EDC/NHS activation, followed by ethanolamine HCl quenching. Increasing concentrations of analyte were flowed over the sensor chip in HBS-TE with 0.5 mg/mL BSA with 5-minute association and 15-minute dissociation. Following each injection cycle the surface was regenerated with 2× 30-second injections of IgG elution buffer (Thermo). Data were analyzed in Carterra's Kinetics Tool software with 1:1 binding model.
Binder,Kd [nM],koff [s⁻¹],kon [M⁻¹ s⁻¹]
B1,≤ 0.0574,≤ 1e-05,174000
B2,0.927,0.000267,289000
B3,≤ 0.0505,≤ 1e-05,198000
B4,0.149,3.7e-05,248000
B5,≤ 0.0757,≤ 1e-05,132000
B6,≤ 0.078,≤ 1e-05,128000
B7,≤ 0.166,≤ 1e-05,60300
B8,2.02,0.000241,119000
B9,12.9,0.000681,52800
B10,4.08,0.000326,80100
B11,≤ 0.0744,≤ 1e-05,134000
B12,3.23,0.00041,127000
B13,5.71,0.0011,193000
B14,2.76,0.000588,213000
B15,0.104,1.29e-05,123000
B16,4.4,0.000619,141000
B17,0.302,2.92e-05,96600
B18,0.409,5.04e-05,123000
B19,1.36,0.000243,179000
B20,≤ 0.188,≤ 1e-05,53100
B21,1.62,0.000232,143000
B22,≤ 0.0748,≤ 1e-05,134000
B23,1.47,0.000392,267000
B24,3.12,0.000618,198000
B25,3.7,0.000372,101000
